Molecular target: PARP-1 F1+F2 (UniProt P09874 1-214)
Test: pull-down

Chain of PARP-1 F1+F2 (P09874 1-214): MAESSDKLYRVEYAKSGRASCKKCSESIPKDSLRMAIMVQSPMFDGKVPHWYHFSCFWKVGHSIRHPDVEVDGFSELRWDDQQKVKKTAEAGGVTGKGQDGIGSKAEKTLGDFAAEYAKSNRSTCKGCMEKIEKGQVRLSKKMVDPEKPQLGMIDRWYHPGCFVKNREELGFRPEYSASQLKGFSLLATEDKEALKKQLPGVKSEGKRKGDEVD

B1: 15 bp duplex, biotinylated (dsDNA)
DNA 1: ACTGCGTTTATGTAT
DNA 2: ATACATAAACGCAGT
binding result: binds

— paper PMC3744807
